Test results as given in patent publication US20220016254A1 (BEIJING QL BIOPHARMACEUTICAL, published 2022).

T1: human beta-Klotho (human, UniProt Q86Z14 1-1044)
T1 sequence (looked up): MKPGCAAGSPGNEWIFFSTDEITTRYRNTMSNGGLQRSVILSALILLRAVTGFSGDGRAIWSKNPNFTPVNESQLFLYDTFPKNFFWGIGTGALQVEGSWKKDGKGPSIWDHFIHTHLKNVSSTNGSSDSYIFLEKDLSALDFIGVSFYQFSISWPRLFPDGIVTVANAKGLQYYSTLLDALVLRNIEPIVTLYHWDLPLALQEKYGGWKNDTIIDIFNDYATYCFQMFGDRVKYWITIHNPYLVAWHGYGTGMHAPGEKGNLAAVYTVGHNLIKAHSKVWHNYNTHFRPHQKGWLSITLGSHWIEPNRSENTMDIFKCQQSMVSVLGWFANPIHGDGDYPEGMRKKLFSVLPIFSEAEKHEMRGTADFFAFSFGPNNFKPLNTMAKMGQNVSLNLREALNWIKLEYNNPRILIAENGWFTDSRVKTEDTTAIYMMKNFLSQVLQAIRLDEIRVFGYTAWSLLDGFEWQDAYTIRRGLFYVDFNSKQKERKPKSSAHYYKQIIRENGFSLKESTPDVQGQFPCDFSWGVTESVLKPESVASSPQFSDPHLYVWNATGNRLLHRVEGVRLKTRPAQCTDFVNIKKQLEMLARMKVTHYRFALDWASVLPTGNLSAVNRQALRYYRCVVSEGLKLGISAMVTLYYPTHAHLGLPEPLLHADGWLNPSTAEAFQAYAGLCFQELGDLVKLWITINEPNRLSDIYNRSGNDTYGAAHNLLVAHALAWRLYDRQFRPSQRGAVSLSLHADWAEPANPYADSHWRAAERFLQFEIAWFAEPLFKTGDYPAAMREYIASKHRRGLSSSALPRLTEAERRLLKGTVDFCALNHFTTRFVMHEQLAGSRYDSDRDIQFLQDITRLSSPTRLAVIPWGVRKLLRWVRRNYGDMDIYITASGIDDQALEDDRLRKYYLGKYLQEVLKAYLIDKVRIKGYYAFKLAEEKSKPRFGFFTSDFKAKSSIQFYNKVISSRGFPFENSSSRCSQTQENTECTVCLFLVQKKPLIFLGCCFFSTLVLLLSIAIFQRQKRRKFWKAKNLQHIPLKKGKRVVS


Tests used:
[1] = target: T1, human beta-Klotho; test: cell-based or functional assay
[2] = target: human GLP-1 receptor (human, UniProt P43220 24-463); test: cell-based or functional assay

| Binder | FGF21 activity (EC50, nM); p-ERK levels [1] [nM] | GLP-1 activity (EC50, pM); CRE luciferase reporter [2] [pM] |
| --- | --- | --- |
| Compound 9 (ligand, Moiety A (HOOC-(CH2)16-CO-gGlu-2XADO) on 231K of fusion polypeptide) HGEGTFTSDVSSYLEEQAAREFIAWLVRGGGGGGGSGGGGSGGGGSGGGGSHPIPDSSPLLQFGGQVRQRYLYTDDAQQTEAHLEIREDGTVGGAADQSPESLLQLRALRPGVIQILGVRTSRFLCQRPDGALYGSLHFDPEACSFRELLLEDGYNVYQSEAHGLPLHLPGQRSPHRDPAPRGPARFLPLPGLPPALPEPPGILAPQPPDVGSSDPLSLVGGSQGRSPSYKS | 4.9 | 19.9 |
| Compound 12 (ligand, Moiety A (HOOC-(CH2)16-CO-gGlu-2XADO) on 225K of fusion polypeptide) HGEGTFTSDVSSYLEEQAAREFIAWLVRGGGGGGGSGGGGSGGGGSGGGGSHPIPDSSPLLQFGGQVRQRYLYTDDAQQTEAHLEIREDGTVGGAADQSPESLLQLRALRPGVIQILGVRTSRFLCQRPDGALYGSLHFDPEACSFRELLLEDGYNVYQSEAHGLPLHLPGQRSPHRDPAPRGPARFLPLPGLPPALPEPPGILAPQPPDVGSSDPLSLVGGSQKRSPSYES | 4.1 | 17 |
| Compound 15 (ligand, Moiety A (HOOC-(CH2)16-CO-gGlu-2XADO) on 231K of fusion polypeptide) HGEGTFTSDVSSYLEEQAAREFIAWLVRGGGGGGGSGGGGSGGGGSGGGGSHPIPDSSPLLQFGGQVRQRYLYTDDAQQTEAHLEIREDGTVGGAADQSPESLLQLRALRPGVIQILGVRTSRFLCQRPDGALYGSLHFDPEACSFRELLLEDGYNVYQSEAHGLPLHLPGQRSPHRDPAPRGPARFLPLPGLPPALPEPPGILAPQPPDVGSSDPLSLVGPSQGRSPSYKS | 7.3 | 16.8 |
| Compound 10 (ligand, Moiety A (HOOC-(CH2)16-CO-gGlu-2XADO) on 222K of fusion polypeptide) HGEGTFTSDVSSYLEEQAAREFIAWLVRGGGGGGGSGGGGSGGGGSGGGGSHPIPDSSPLLQFGGQVRQRYLYTDDAQQTEAHLEIREDGTVGGAADQSPESLLQLRALRPGVIQILGVRTSRFLCQRPDGALYGSLHFDPEACSFRELLLEDGYNVYQSEAHGLPLHLPGQRSPHRDPAPRGPARFLPLPGLPPALPEPPGILAPQPPDVGSSDPLSLVGKSQGRSPSYES | 4.5 | 17.6 |
| Compound 11 (ligand, Moiety A (HOOC-(CH2)16-CO-gGlu-2XADO) on 221K of fusion polypeptide) HGEGTFTSDVSSYLEEQAAREFIAWLVRGGGGGGGSGGGGSGGGGSGGGGSHPIPDSSPLLQFGGQVRQRYLYTDDAQQTEAHLEIREDGTVGGAADQSPESLLQLRALRPGVIQILGVRTSRFLCQRPDGALYGSLHFDPEACSFRELLLEDGYNVYQSEAHGLPLHLPGQRSPHRDPAPRGPARFLPLPGLPPALPEPPGILAPQPPDVGSSDPLSLVKPSQGRSPSYES | 3.9 | 18.2 |
| Compound 19 (ligand, Moiety A (HOOC-(CH2)16-CO-gGlu-2XADO) on 51K and 222K of fusion polypeptide) HGEGTFTSDVSSYLEEQAAREFIAWLVRGGGGGGGSGGGGSGGGGSGGGGKHPIPDSSPLLQFGGQVRQRYLYTDDAQQTEAHLEIREDGTVGGAADQSPESLLQLRALRPGVIQILGVRTSRFLCQRPDGALYGSLHFDPEACSFRELLLEDGYNVYQSEAHGLPLHLPGQRSPHRDPAPRGPARFLPLPGLPPALPEPPGILAPQPPDVGSSDPLSLVGKSQGRSPSYES | 13.6 | 20.3 |
| Compound 13 (ligand, Moiety A (HOOC-(CH2)16-CO-gGlu-2XADO) on 222K of fusion polypeptide) HGEGTFTSDVSSYLEEQAAREFIAWLVRGGGGAQPGAQPGAQPGAQPGAQPHPIPDSSPLLQFGGQVRQRYLYTDDAQQTEAHLEIREDGTVGGAADQSPESLLQLRALRPGVIQILGVRTSRFLCQRPDGALYGSLHFDPEACSFRELLLEDGYNVYQSEAHGLPLHLPGQRSPHRDPAPRGPARFLPLPGLPPALPEPPGILAPQPPDVGSSDPLSLVGKSQGRSPSYES | 9.1 | 19.6 |
| Compound 14 (ligand, Moiety A (HOOC-(CH2)16-CO-gGlu-2XADO) on 222K of fusion polypeptide) HGEGTFTSDVSSYLEEQAAREFIAWLVRGGGGQEPGQEPGQEPGQEPGQEPHPIPDSSPLLQFGGQVRQRYLYTDDAQQTEAHLEIREDGTVGGAADQSPESLLQLRALRPGVIQILGVRTSRFLCQRPDGALYGSLHFDPEACSFRELLLEDGYNVYQSEAHGLPLHLPGQRSPHRDPAPRGPARFLPLPGLPPALPEPPGILAPQPPDVGSSDPLSLVGKSQGRSPSYES | 19 | 33.2 |

Other lines, results leading:

| FGF21 activity (EC50, nM); p-ERK levels [1] [nM] | GLP-1 activity (EC50, pM); CRE luciferase reporter [2] [pM] | Binder |
| --- | --- | --- |
| 10.6 |  | Native FGF21 (ligand) HPIPDSSPLLQFGGQVRQRYLYTDDAQQTEAHLEIREDGTVGGAADQSPESLLQLKALKPGVIQILGVKTSRFLCQRPDGALYGSLHFDPEACSFRELLLEDGYNVYQSEAHGLPLHLPGNKSPHRDPAPRGPARFLPLPGLPPALPEPPGILAPQPPDVGSSDPLSMVGPSQGRSPSYAS |
| 8 |  | Compound 40 (ligand, Moiety A (HOOC-(CH2)16-CO-gGlu-2XADO) on 111K and 282K of fusion polypeptide) HGEGTFTSDVSSYLEEQAAREFIAWLVRGGGGAQPGAQPGAQPGAQPGAQPGAQPGAQPGAQPGAQPGAQPGAQPGAQPGAQPGAQPGAQPGAQPGAQPGAQPGAQPGAQKHPIPDSSPLLQFGGQVRQRYLYTDDAQQTEAHLEIREDGTVGGAADQSPESLLQLRALRPGVIQILGVRTSRFLCQRPDGALYGSLHFDPEACSFRELLLEDGYNVYQSEAHGLPLHLPGQRSPHRDPAPRGPARFLPLPGLPPALPEPPGILAPQPPDVGSSDPLSLVGKSQGRSPSYES |
| 8.4 |  | Compound 42 (ligand, Moiety A (HOOC-(CH2)16-CO-gGlu-2XADO) on 71K and 242K of fusion polypeptide) HGEGTFTSDVSSYLEEQAAREFIAWLVRGGGGAQPGAQPGAQPGAQPGAQPGAQPGAQPGAQPGAQPGAQKHPIPDSSPLLQFGGQVRQRYLYTDDAQQTEAHLEIREDGTVGGAADQSPESLLQLRALRPGVIQILGVRTSRFLCQRPDGALYGSLHFDPEACSFRELLLEDGYNVYQSEAHGLPLHLPGQRSPHRDPAPRGPARFLPLPGLPPALPEPPGILAPQPPDVGSSDPLSLVGKSQGRSPSYES |
| 10.6 | 39.1 | Compound 20 (ligand, Moiety A (HOOC-(CH2)16-CO-gGlu-2XADO) on 51K and 221K of fusion polypeptide) HGEGTFTSDVSSYLEEQAAREFIAWLVRGGGGGGGSGGGGSGGGGSGGGGKHPIPDSSPLLQFGGQVRQRYLYTDDAQQTEAHLEIREDGTVGGAADQSPESLLQLRALRPGVIQILGVRTSRFLCQRPDGALYGSLHFDPEACSFRELLLEDGYNVYQSEAHGLPLHLPGQRSPHRDPAPRGPARFLPLPGLPPALPEPPGILAPQPPDVGSSDPLSLVKPSQGRSPSYES |
| 17.6 | 36.8 | Compound 21 (ligand, Moiety A (HOOC-(CH2)16-CO-gGlu-2XADO) on 51K and 225K of fusion polypeptide) HGEGTFTSDVSSYLEEQAAREFIAWLVRGGGGGGGSGGGGSGGGGSGGGGKHPIPDSSPLLQFGGQVRQRYLYTDDAQQTEAHLEIREDGTVGGAADQSPESLLQLRALRPGVIQILGVRTSRFLCQRPDGALYGSLHFDPEACSFRELLLEDGYNVYQSEAHGLPLHLPGQRSPHRDPAPRGPARFLPLPGLPPALPEPPGILAPQPPDVGSSDPLSLVGGSQKRSPSYES |
| 7 | 50.4 | Compound 22 (ligand, Moiety A (HOOC-(CH2)16-CO-gGlu-2XADO) on 51K and 231K of fusion polypeptide) HGEGTFTSDVSSYLEEQAAREFIAWLVRGGGGGGGSGGGGSGGGGSGGGGKHPIPDSSPLLQFGGQVRQRYLYTDDAQQTEAHLEIREDGTVGGAADQSPESLLQLRALRPGVIQILGVRTSRFLCQRPDGALYGSLHFDPEACSFRELLLEDGYNVYQSEAHGLPLHLPGQRSPHRDPAPRGPARFLPLPGLPPALPEPPGILAPQPPDVGSSDPLSLVGGSQGRSPSYK |
